Measurements from patent US10358663B2, “Method of production of 2,4-dihydroxybutyric acid” (ADISSEO FRANCE S.A.S., priority 2010, dated 2019).
Positions count from the first letter of the chain named. Names may count otherwise.

Key:
Assay type in all cases: biochemical, Escherichia coli
[1] = substrate: N[C@@H](CC(=O)O)C(=O)O; assay: Aspartate kinase assay (ADP production coupled to NADH oxidation), His-tagged wild-type LysC; settings: other: His-tagged LysC, Eadie and Hofstee, pH 7.5, 30° C.
Procedure: (§1) Enzymatic assay: Aspartate or malate kinase activities were assayed by coupling ADP production in the kinase reactions to NADH oxidation in the presence of phosphoenolpyruvate, pyruvate kinase, and lactate dehydrogenase.
(§2) Aspartate (or Malate) Kinase aspartate (or malate)+ATP→4-phospho-(L)-aspartate (or 4-phospho-(L)-malate)+ADP
(§3) The assay mixture contained 50 mM Hepes (pH 7.5), 50 mM KCl, 5 mM MgCl2, 0.24 mM NADH, 0.96 mM ATP, 0.96 mM PEP, 9 μg/mL of lactate dehydrogenase (Sigma, L2500), 12.4 μg/mL pyruvate kinase (Sigma, P1506), and appropriate amounts of purified aspartate (malate) kinase. Reactions were started by adding 50 mM (L)-aspartate or (L)-malate. Enzymatic assays were carried out at 30° C. in 96-well flat bottomed microtiter plates in a final volume of 250 μL. The reactions were followed by the characteristic absorption of NADH at 340 nm in a microplate reader (BioRad 680XR).
Maximum activities for LysC and Hom3 on aspartate were 4.5 μmol/(min*mgprot) and 1.6 μmol/(min*mgprot), respectively. The Km value for aspartate was estimated with the method of Eadie and Hofstee by measuring initial reaction rates (v) at different substrate concentrations (c) and by extracting the slope of the v versus v/c plot. […]

[2] = substrate: O=C(O)C[C@H](O)C(=O)O; assay: Malate kinase assay, LysC E119C; settings: other: malate, pH 7.5, 30° C., average of at least two independent experiments
Procedure: as §1, §2, §3
(§4) Mutant enzymes were expressed, purified and tested for aspartate and malate kinase activity as described in Example 1.

[3] = substrate: O=C(O)C[C@H](O)C(=O)O; assay: Malate kinase assay, LysC E119P; settings: other: malate, pH 7.5, 30° C., average of at least two independent experiments
Procedure: as §1, §2, §3, §4

[4] = substrate: O=C(O)C[C@H](O)C(=O)O; assay: Malate kinase assay, LysC E119S; settings: other: malate, pH 7.5, 30° C., average of at least two independent experiments
Procedure: as §1, §2, §3, §4

[5] = substrate: O=C(O)C[C@H](O)C(=O)O; assay: Malate kinase assay, LysC E119T; settings: other: malate, pH 7.5, 30° C., average of at least two independent experiments
Procedure: as §1, §2, §3, §4

[6] = substrate: O=C(O)C[C@H](O)C(=O)O; assay: Malate kinase assay, LysC E119G; settings: other: malate, pH 7.5, 30° C., average of at least two independent experiments
Procedure: as §1, §2, §3, §4

[7] = substrate: O=C(O)C[C@H](O)C(=O)O; assay: Malate kinase assay, LysC E119Q; settings: other: malate, pH 7.5, 30° C., average of at least two independent experiments
Procedure: as §1, §2, §3, §4

[8] = substrate: O=C(O)C[C@H](O)C(=O)O; assay: Malate kinase assay, LysC E119V; settings: other: malate, pH 7.5, 30° C., average of at least two independent experiments
Procedure: as §1, §2, §3, §4

[9] = substrate: O=C(O)C[C@H](O)C(=O)O; assay: Malate kinase assay, LysC E119N; settings: other: malate, pH 7.5, 30° C., average of at least two independent experiments
Procedure: as §1, §2, §3, §4

[10] = substrate: O=CC[C@H](O)C(=O)O; assay: Malate semialdehyde dehydrogenase assay, Asd E241Q T136N; settings: other: malate semialdehyde, reverse biosynthetic direction, pH 9, 0.25 mM NADP, 30° C.
Procedure: (§5) Enzymatic assay: Aspartate or malate semialdehyde dehydrogenase activities were assayed in the reverse biosynthetic direction by following the reduction of NADP during the oxidation of aspartate or malate semialdehyde to 4-phospho-(L)-aspartate or 4-phospho-(L)-malate, respectively (Roberts et al., 2003). (L)-aspartate semialdehyde (or (L)-malate semialdehyde)+NADP+Pi→4-phospho-(L)-aspartate (or 4-phospho-(L)-malate)+NADPH
(§6) The assay mixture contained 200 mM Hepes (pH 9), 50 mM K2HPO4, 0.25 mM NADP. Reactions were started by adding (L)-aspartate semialdehyde or (L)-malate semialdehyde. (L)-Aspartate semialdehyde was added in the form of L-aspartic acid β-semialdehyde hydrate trifluoroacetate (maintained at pH3 to prevent degradation) which is a suitable substrate for enzymatic tests of homoserine dehydrogenase and aspartate semialdehyde dehysrogenase (Roberts et al., 2003). Unstable malate semialdehyde was produced freshly prior to the enzymatic tests by the deprotection of the stable malate semialdehyde derivative 2-[(4S)-2,2-dimethyl-5-oxo-1,3-dioxolan-4-yl]acetaldehyde (DMODA). […]
Enzymatic assays were carried out in 96-well flat bottomed microtiter plates in a final volume of 250 μL at 30° C. The reactions were followed by the characteristic absorption of NADPH at 340 nm in a microplate reader (BioRad 680XR). […]

[11] = substrate: O=CC[C@H](O)C(=O)O; assay: Malate semialdehyde dehydrogenase assay, Asd E241A; settings: other: malate semialdehyde, reverse biosynthetic direction, pH 9, 0.25 mM NADP, 30° C.
Procedure: as §5, §6
(§7) Enzymatic assays were carried out in 96-well flat bottomed microtiter plates in a final volume of 250 μL at 30° C. The reactions were followed by the characteristic absorption of NADPH at 340 nm in a microplate reader (BioRad 680XR).

[12] = substrate: O=CC[C@H](O)C(=O)O; assay: Malate semialdehyde dehydrogenase assay, Asd E241G; settings: other: malate semialdehyde, reverse biosynthetic direction, pH 9, 0.25 mM NADP, 30° C.
Procedure: as §5, §6, §7

[13] = substrate: O=CC[C@H](O)C(=O)O; assay: Malate semialdehyde dehydrogenase assay, Asd E241Q; settings: other: malate semialdehyde, reverse biosynthetic direction, pH 9, 0.25 mM NADP, 30° C.
Procedure: as §5, §6, §7

[14] = substrate: O=CC[C@H](O)C(=O)O; assay: Malate semialdehyde dehydrogenase assay, Asd E241M; settings: other: malate semialdehyde, reverse biosynthetic direction, pH 9, 0.25 mM NADP, 30° C.
Procedure: as §5, §6, §7

[15] = substrate: O=CC[C@H](O)C(=O)O; assay: Malate semialdehyde dehydrogenase assay, Asd E241H; settings: other: malate semialdehyde, reverse biosynthetic direction, pH 9, 0.25 mM NADP, 30° C.
Procedure: as §5, §6, §7

[16] = substrate: O=CC[C@H](O)C(=O)O; assay: Malate semialdehyde dehydrogenase assay, Asd E241C; settings: other: malate semialdehyde, reverse biosynthetic direction, pH 9, 0.25 mM NADP, 30° C.
Procedure: as §5, §6, §7

[17] = substrate: O=CC[C@H](O)C(=O)O; assay: Malate semialdehyde dehydrogenase assay, Asd E241I; settings: other: malate semialdehyde, reverse biosynthetic direction, pH 9, 0.25 mM NADP, 30° C.
Procedure: as §5, §6, §7

B1: E. coli aspartate kinase III LysC, wild type, His-tagged, SEQ ID NO: 4 (Escherichia coli K-12) (protein)
chain: MSEIVVSKFGGTSVADFDAMNRSADIVLSDANVRLVVLSASAGITNLLVALAEGLEPGERFEKLDAIRNIQFAILERLRYPNVIREEIERLLENITVLAEAAALATSPALTDELVSHGELMSTLLFVEILRERDVQAQWFDVRKVMRTNDRFGRAEPDIAALAELAALQLLPRLNEGLVITQGFIGSENKGRTTTLGRGGSDYTAALLAEALHASRVDIWTDVPGIYTTDPRVVSAAKRIDEIAFAEAAEMATFGAKVLHPATLLPAVRSDIPVFVGSSKDPRAGGTLVCNKTENPPLFRALALRRNQTLLTLHSLNMLHSRGFLAEVFGILARHNISVDLITTSEVSVALTLDTTGSTSTGDTLLTQSLLMELSALCRVEVEEGLALVALIGNDLSKACGVGKEVFGVLEPFNIRMICYGASSHNLCFLVPGEDAEQVVQKLHSNLFE
- Km [1]: 600 µM

B2: E. coli aspartate kinase LysC variant E119C, SEQ ID NO: 12 (Escherichia coli K-12; E119C) (protein)
chain: B1 chain with E119C
- Km [2]: 19700 µM
- Vmax [2]: 0.97 µmol/mg/min

B3: E. coli aspartate kinase LysC variant E119P, SEQ ID NO: 18 (Escherichia coli K-12; E119P) (protein)
chain: B1 chain with E119P
- Km [3]: 19000 µM
- Vmax [3]: 0.71 µmol/mg/min

B4: E. coli aspartate kinase LysC variant E119S, SEQ ID NO: 22 (Escherichia coli K-12; E119S) (protein)
chain: B1 chain with E119S
- Km [4]: 15700 µM
- Vmax [4]: 0.83 µmol/mg/min

B5: E. coli aspartate kinase LysC variant E119T, SEQ ID NO: 24 (Escherichia coli K-12; E119T) (protein)
chain: B1 chain with E119T
- Km [5]: 26800 µM
- Vmax [5]: 0.33 µmol/mg/min

B6: E. coli aspartate kinase LysC variant E119G, SEQ ID NO: 14 (Escherichia coli K-12; E119G) (protein)
chain: B1 chain with E119G
- Km [6]: 16000 µM
- Vmax [6]: 0.49 µmol/mg/min

B7: E. coli aspartate kinase LysC variant E119Q, SEQ ID NO: 20 (Escherichia coli K-12; E119Q) (protein)
chain: B1 chain with E119Q
- Km [7]: 39900 µM
- Vmax [7]: 0.01 µmol/mg/min

B8: E. coli aspartate kinase LysC variant E119V, SEQ ID NO: 26 (Escherichia coli K-12; E119V) (protein)
chain: B1 chain with E119V
- Km [8]: 39700 µM
- Vmax [8]: 0.29 µmol/mg/min

B9: E. coli aspartate kinase LysC variant E119N, SEQ ID NO: 16 (Escherichia coli K-12; E119N) (protein)
chain: B1 chain with E119N
- Km [9]: 27100 µM
- Vmax [9]: 0.13 µmol/mg/min

B10: E. coli aspartate semialdehyde dehydrogenase Asd variant E241Q T136N, SEQ ID NO: 231 (Escherichia coli K-12; E241Q/T136N) (protein)
chain: MKNVGFIGWRGMVGSVLMQRMVEERDFDAIRPVFFSTSQLGQAAPSFGGTTGTLQDAFDLEALKALDIIVTCQGGDYTNEIYPKLRESGWQGYWIDAASSLRMKDDAIIILDPVNQDVITDGLNNGIRTFVGGNCNVSLMLMSLGGLFANDLVDWVSVATYQAASGGGARHMRELLTQMGHLYGHVADELATPSSAILDIERKVTTLTRSGELPVDNFGVPLAGSLIPWIDKQLDNGQSRQEWKGQAETNKILNTSSVIPVDGLCVRVGALRCHSQAFTIKLKKDVSIPTVEELLAAHNPWAKVVPNDREITMRELTPAAVTGTLTTPVGRLRKLNMGPEFLSAFTVGDQLLWGAAEPLRRMLRQLA
- Km [10]: 250 µM

B11: E. coli aspartate semialdehyde dehydrogenase Asd variant E241A, SEQ ID NO: 54 (Escherichia coli K-12; E241A) (protein)
chain: B10 chain with N136T, Q241A
- Km [11]: 378 µM
- Vmax [11]: 0.09 µmol/mg/min

B12: E. coli aspartate semialdehyde dehydrogenase Asd variant E241G, SEQ ID NO: 58 (Escherichia coli K-12; E241G) (protein)
chain: B10 chain with N136T, Q241G
- Km [12]: 180 µM
- Vmax [12]: 0.09 µmol/mg/min

B13: E. coli aspartate semialdehyde dehydrogenase Asd variant E241Q, SEQ ID NO: 66 (Escherichia coli K-12; E241Q) (protein)
chain: B10 chain with N136T
- Km [13]: 520 µM
- Vmax [13]: 0.39 µmol/mg/min

B14: E. coli aspartate semialdehyde dehydrogenase Asd variant E241M, SEQ ID NO: 64 (Escherichia coli K-12; E241M) (protein)
chain: B10 chain with N136T, Q241M
- Km [14]: 430 µM
- Vmax [14]: 0.15 µmol/mg/min

B15: E. coli aspartate semialdehyde dehydrogenase Asd variant E241H, SEQ ID NO: 60 (Escherichia coli K-12; E241H) (protein)
chain: B10 chain with N136T, Q241H
- Km [15]: 800 µM
- Vmax [15]: 0.10 µmol/mg/min

B16: E. coli aspartate semialdehyde dehydrogenase Asd variant E241C, SEQ ID NO: 56 (Escherichia coli K-12; E241C) (protein)
chain: B10 chain with N136T, Q241C
- Km [16]: 500 µM
- Vmax [16]: 0.18 µmol/mg/min

B17: E. coli aspartate semialdehyde dehydrogenase Asd variant E241I, SEQ ID NO: 62 (Escherichia coli K-12; E241I) (protein)
chain: B10 chain with N136T, Q241I
- Km [17]: 230 µM
- Vmax [17]: 0.10 µmol/mg/min
